Source: patent publication US20160185837A1 (Medimmune Limited, priority 2013, published 2016)

Assays:
cyno GLP-1r (cGLP-1r) = molecular target: T1, cyno GLP-1r (cGLP-1r) (Macaca fascicularis, UniProt F8V479); experiment: cAMP assay, cells expressing cyno GLP-1r, 4.2% cyno serum albumin; assay type: cell-based, cynomolgus monkey
T1 construct: expressed in transfected cells
Text: In certain aspects, the assay can also be carried out in medium supplemented with serum albumin that corresponds to the receptor being tested, e.g., human serum albumin for testing cAMP activity at hGIPr or hGLP-1r, rat serum albumin for testing cAMP activity at rGIPr or rGLP-1r, and so on. […] All sample dilutions were made in duplicate.
A frozen cryo-vial of cells expressing the receptor of interest was thawed rapidly in a water-bath, transferred to pre-warmed assay media and spun at 240×g for 5 minutes. Cells were re-suspended in assay buffer at an optimized concentration (e.g., hGLP-1r and hGIPr cells at 0.5×10^5 cells/ml).
To this, 5 μL cell suspension was added and the plates incubated at room temperature for 30 minutes.
cAMP levels were measured using a commercially available cAMP dynamic 2 HTRF kit (Cisbio, Cat #62AM4PEJ), following the two step protocol as per manufacturer's recommendations. In brief; anti-cAMP cryptate (donor fluorophore) and cAMP-d2 (acceptor fluorophore) were made up separately by diluting each 1/20 in conjugate & lysis buffer provided in the kit. […] Data was transformed to % Delta F as described in manufacturer's guidelines and then transformed to percent activation of maximal native agonist response and analysed by 4-parameter logistic fit to determine EC50 values.

PK by Fc Detection = experiment: PK by Fc Detection
Experimental: Table printed on a drawing sheet, FIG. 3A-C
Title: PK by Fc Detection
(§1) Circles: IV injection of 1 mg/kg, squares: subcutaneous injection of 1 mg/kg. Pharmacokinetic parameters Cmax, bioavailability (F %) and half-life T1/2 are compared in panel C.
(§2) Circles: IV injection of 1 mg/kg, squares: subcutaneous injection of 1 mg/kg. Pharmacokinetic parameters Cmax, bioavailability (F %) and half life T112 are compared in panel F.
First reader's note: Panel C of FIG. 3A-C; the title 'PK by Fc Detection' is printed over the whole sheet, including plot panels A and B.

PK by Activity = experiment: PK by Activity
Experimental: Table printed on a drawing sheet, FIG. 3D-F
as §1, §2
First reader's note: Panel F of FIG. 3D-F; the pharmacokinetic parameters were derived from plasma levels measured by activity (sheet heading 'PK by Activity').

T1 sequence (F8V479 24-463): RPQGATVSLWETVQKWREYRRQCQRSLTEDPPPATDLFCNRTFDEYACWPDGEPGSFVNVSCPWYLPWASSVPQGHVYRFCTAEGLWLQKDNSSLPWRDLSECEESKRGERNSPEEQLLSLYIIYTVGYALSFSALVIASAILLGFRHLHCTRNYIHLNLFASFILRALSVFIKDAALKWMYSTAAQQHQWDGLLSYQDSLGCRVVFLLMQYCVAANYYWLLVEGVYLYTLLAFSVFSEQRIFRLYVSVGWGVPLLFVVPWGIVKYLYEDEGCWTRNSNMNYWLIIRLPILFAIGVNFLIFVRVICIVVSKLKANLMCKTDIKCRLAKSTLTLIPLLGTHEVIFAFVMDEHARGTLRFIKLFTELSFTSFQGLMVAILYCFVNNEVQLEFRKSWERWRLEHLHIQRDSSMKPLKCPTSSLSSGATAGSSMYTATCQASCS

Compound | EC50 (cyno GLP-1r (cGLP-1r)) [nM] | Cmax (PK by Fc Detection) [ng/mL] | F (%) (PK by Fc Detection) | t½ (PK by Fc Detection) [h] | Cmax (PK by Activity) [nM] | F (%) (PK by Activity) | t½ (PK by Activity) [h]
CCCCCCCCCCCCCCCC(=O)N[C@@H](CCC(=O)NCCCC[C@H](NC(=O)[C@H](C)NC(=O)[C@H](C)NC(=O)[C@H](CCC(N)=O)NC(=O)CNC(=O)[C@H](CCC(=O)O)NC(=O)[C@H](CC(C)C)NC(=O)[C@H](Cc1ccc(O)cc1)NC(=O)[C@H](CO)NC(=O)[C@H](CO)NC(=O)[C@@H](NC(=O)[C@H](CC(=O)O)NC(=O)[C@H](CO)NC(=O)[C@@H](NC(=O)[C@H](Cc1ccccc1)NC(=O)[C@@H](NC(=O)CNC(=O)[C@H](CCC(=O)O)NC(=O)[C@H](C)NC(=O)[C@@H](N)Cc1cnc[nH]1)[C@@H](C)O)[C@@H](C)O)C(C)C)C(=O)N[C@@H](CCC(=O)O)C(=O)N[C@@H](Cc1ccccc1)C(=O)N[C@H](C(=O)N[C@@H](C)C(=O)N[C@@H](Cc1c[nH]c2ccccc12)C(=O)N[C@@H](CC(C)C)C(=O)N[C@H](C(=O)N[C@@H](CCCNC(=N)N)C(=O)NCC(=O)N[C@@H](CCCNC(=N)N)C(=O)NCC(=O)O)C(C)C)[C@@H](C)CC)C(=O)O [liraglutide] | 0.025 |  |  |  |  |  | 
GLP-1a-Fc (HGEGTFTSDVSSYLEEQAAKEFIAWLVKGR; /note=“Description of Artificial Sequence Synthetic GLP-1 Analog polypeptide”) |  | 8500 | 59 | 79 | 24 | 93 | 30
